Numbered stars: 1 amine (or outer) side, 2 acyl side, 3 side chain; on linkers, the order of the positions; unused ones are H or OH. Bridge positions count the residues as written; N and C are the ends. Side chains are listed from the residue outwards. Ends that are not written are not given here. * marks the point of attachment. C20 diacid = O=C(O)CCCCCCCCCCCCCCCCCCC(=O)*; γGlu = O=C(O)[C@H](CCC(=O)[*:2])N[*:1]; AEEA = NCCOCCOCC(=O)O

Experimental findings from patent publication US20140087995A1 (published 2014) are described below.

T1: human calcitonin receptor (human, UniProt P30988 25-474)
T1 sequence (looked up): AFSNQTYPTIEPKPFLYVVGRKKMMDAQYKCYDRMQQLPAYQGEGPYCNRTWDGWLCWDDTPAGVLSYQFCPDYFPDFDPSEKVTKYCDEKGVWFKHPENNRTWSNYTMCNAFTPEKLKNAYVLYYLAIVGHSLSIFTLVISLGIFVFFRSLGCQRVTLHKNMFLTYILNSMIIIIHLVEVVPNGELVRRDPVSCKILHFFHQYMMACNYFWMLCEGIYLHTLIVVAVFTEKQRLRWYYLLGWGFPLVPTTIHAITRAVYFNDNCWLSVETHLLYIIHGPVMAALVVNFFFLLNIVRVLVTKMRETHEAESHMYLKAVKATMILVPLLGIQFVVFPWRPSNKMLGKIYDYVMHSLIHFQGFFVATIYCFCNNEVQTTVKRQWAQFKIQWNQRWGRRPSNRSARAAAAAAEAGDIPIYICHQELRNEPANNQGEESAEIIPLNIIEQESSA

T2: human amylin receptor (amylin 3(a) receptor: human calcitonin receptor plus RAMP-3) (human, UniProt P30988 25-474; O60896 24-148, limits assumed)
T2 sequence (looked up) 1: T1 sequence (looked up)
T2 sequence (looked up) 2: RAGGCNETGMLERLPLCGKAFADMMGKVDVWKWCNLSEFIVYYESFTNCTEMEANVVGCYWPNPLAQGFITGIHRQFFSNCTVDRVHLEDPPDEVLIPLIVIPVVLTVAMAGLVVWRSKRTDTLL

B1: N^ε-[(4S)-4-carboxy-4-(19-carboxynonadecanoylamino)butanoyl]Lys[Arg1,Arg17,Pro21,Pro27,His35]-h-amylin (peptide)
peptide: K([γGlu-C20 diacid])RCNTATCATQRLANFLRHSSPNFGAIPSSTNVGSHTY-NH2
modifications: disulfide 3-8; N-terminus assumed
SMILES: CC[C@H](C)[C@H](NC(=O)[C@H](C)NC(=O)CNC(=O)[C@H](Cc1ccccc1)NC(=O)[C@H](CC(N)=O)NC(=O)[C@@H]1CCCN1C(=O)[C@H](CO)NC(=O)[C@H](CO)NC(=O)[C@H](Cc1c[nH]cn1)NC(=O)[C@H](CCCNC(=N)N)NC(=O)[C@H](CC(C)C)NC(=O)[C@H](Cc1ccccc1)NC(=O)[C@H](CC(N)=O)NC(=O)[C@H](C)NC(=O)[C@H](CC(C)C)NC(=O)[C@H](CCCNC(=N)N)NC(=O)[C@H](CCC(N)=O)NC(=O)[C@@H](NC(=O)[C@H](C)NC(=O)[C@@H]1CSSC[C@H](NC(=O)[C@H](CCCNC(=N)N)NC(=O)[C@@H](N)CCCCNC(=O)CC[C@H](NC(=O)CCCCCCCCCCCCCCCCCCC(=O)O)C(=O)O)C(=O)N[C@@H](CC(N)=O)C(=O)N[C@@H]([C@@H](C)O)C(=O)N[C@@H](C)C(=O)N[C@@H]([C@@H](C)O)C(=O)N1)[C@@H](C)O)C(=O)N1CCC[C@H]1C(=O)N[C@@H](CO)C(=O)N[C@@H](CO)C(=O)N[C@H](C(=O)N[C@@H](CC(N)=O)C(=O)N[C@H](C(=O)NCC(=O)N[C@@H](CO)C(=O)N[C@@H](Cc1c[nH]cn1)C(=O)N[C@H](C(=O)N[C@@H](Cc1ccc(O)cc1)C(N)=O)[C@@H](C)O)C(C)C)[C@@H](C)O
notes: Synthetic acylated analogue of human amylin, extended by Lys at the N-terminus; also called compound 44
B2: N^-1-[(4S)-4-carboxy-4-(19-carboxynonadecanoylamino)butanoyl]-Gly[Arg1,Arg17,Pro21,Pro27]-h-amylin (peptide)
peptide: {C20 diacid-γGlu}-GRCNTATCATQRLANFLRHSSPNFGAIPSSTNVGSNTY-NH2
modifications: disulfide 3-8
SMILES: CC[C@H](C)[C@H](NC(=O)[C@H](C)NC(=O)CNC(=O)[C@H](Cc1ccccc1)NC(=O)[C@H](CC(N)=O)NC(=O)[C@@H]1CCCN1C(=O)[C@H](CO)NC(=O)[C@H](CO)NC(=O)[C@H](Cc1c[nH]cn1)NC(=O)[C@H](CCCNC(=N)N)NC(=O)[C@H](CC(C)C)NC(=O)[C@H](Cc1ccccc1)NC(=O)[C@H](CC(N)=O)NC(=O)[C@H](C)NC(=O)[C@H](CC(C)C)NC(=O)[C@H](CCCNC(=N)N)NC(=O)[C@H](CCC(N)=O)NC(=O)[C@@H](NC(=O)[C@H](C)NC(=O)[C@@H]1CSSC[C@H](NC(=O)[C@H](CCCNC(=N)N)NC(=O)CNC(=O)CC[C@H](NC(=O)CCCCCCCCCCCCCCCCCCC(=O)O)C(=O)O)C(=O)N[C@@H](CC(N)=O)C(=O)N[C@@H]([C@@H](C)O)C(=O)N[C@@H](C)C(=O)N[C@@H]([C@@H](C)O)C(=O)N1)[C@@H](C)O)C(=O)N1CCC[C@H]1C(=O)N[C@@H](CO)C(=O)N[C@@H](CO)C(=O)N[C@H](C(=O)N[C@@H](CC(N)=O)C(=O)N[C@H](C(=O)NCC(=O)N[C@@H](CO)C(=O)N[C@@H](CC(N)=O)C(=O)N[C@H](C(=O)N[C@@H](Cc1ccc(O)cc1)C(N)=O)[C@@H](C)O)C(C)C)[C@@H](C)O
notes: Synthetic acylated analogue of human amylin, extended by Gly at the N-terminus; also called compound 46
B3: N^-1-[(4S)-4-carboxy-4-(19-carboxynonadecanoylamino)butanoyl]-Gly[Arg1,Arg17,Pro21,Pro27,His35]-h-amylin (peptide)
peptide: {C20 diacid-γGlu}-GRCNTATCATQRLANFLRHSSPNFGAIPSSTNVGSHTY-NH2
modifications: disulfide 3-8
SMILES: CC[C@H](C)[C@H](NC(=O)[C@H](C)NC(=O)CNC(=O)[C@H](Cc1ccccc1)NC(=O)[C@H](CC(N)=O)NC(=O)[C@@H]1CCCN1C(=O)[C@H](CO)NC(=O)[C@H](CO)NC(=O)[C@H](Cc1c[nH]cn1)NC(=O)[C@H](CCCNC(=N)N)NC(=O)[C@H](CC(C)C)NC(=O)[C@H](Cc1ccccc1)NC(=O)[C@H](CC(N)=O)NC(=O)[C@H](C)NC(=O)[C@H](CC(C)C)NC(=O)[C@H](CCCNC(=N)N)NC(=O)[C@H](CCC(N)=O)NC(=O)[C@@H](NC(=O)[C@H](C)NC(=O)[C@@H]1CSSC[C@H](NC(=O)[C@H](CCCNC(=N)N)NC(=O)CNC(=O)CC[C@H](NC(=O)CCCCCCCCCCCCCCCCCCC(=O)O)C(=O)O)C(=O)N[C@@H](CC(N)=O)C(=O)N[C@@H]([C@@H](C)O)C(=O)N[C@@H](C)C(=O)N[C@@H]([C@@H](C)O)C(=O)N1)[C@@H](C)O)C(=O)N1CCC[C@H]1C(=O)N[C@@H](CO)C(=O)N[C@@H](CO)C(=O)N[C@H](C(=O)N[C@@H](CC(N)=O)C(=O)N[C@H](C(=O)NCC(=O)N[C@@H](CO)C(=O)N[C@@H](Cc1c[nH]cn1)C(=O)N[C@H](C(=O)N[C@@H](Cc1ccc(O)cc1)C(N)=O)[C@@H](C)O)C(C)C)[C@@H](C)O
notes: Synthetic acylated analogue of human amylin, extended by Gly at the N-terminus; also called compound 47
B4: N^ε1-[2-[2-[2-(19-carboxynonadecanoylamino)ethoxy]ethoxy]acetyl]-[Arg17,Pro21,Pro27]-h-amylin (peptide)
peptide: K([AEEA-C20 diacid])CNTATCATQRLANFLRHSSPNFGAIPSSTNVGSNTY-NH2
modifications: disulfide 2-7; N-terminus assumed
SMILES: CC[C@H](C)[C@H](NC(=O)[C@H](C)NC(=O)CNC(=O)[C@H](Cc1ccccc1)NC(=O)[C@H](CC(N)=O)NC(=O)[C@@H]1CCCN1C(=O)[C@H](CO)NC(=O)[C@H](CO)NC(=O)[C@H](Cc1c[nH]cn1)NC(=O)[C@H](CCCNC(=N)N)NC(=O)[C@H](CC(C)C)NC(=O)[C@H](Cc1ccccc1)NC(=O)[C@H](CC(N)=O)NC(=O)[C@H](C)NC(=O)[C@H](CC(C)C)NC(=O)[C@H](CCCNC(=N)N)NC(=O)[C@H](CCC(N)=O)NC(=O)[C@@H](NC(=O)[C@H](C)NC(=O)[C@@H]1CSSC[C@H](NC(=O)[C@@H](N)CCCCNC(=O)COCCOCCNC(=O)CCCCCCCCCCCCCCCCCCC(=O)O)C(=O)N[C@@H](CC(N)=O)C(=O)N[C@@H]([C@@H](C)O)C(=O)N[C@@H](C)C(=O)N[C@@H]([C@@H](C)O)C(=O)N1)[C@@H](C)O)C(=O)N1CCC[C@H]1C(=O)N[C@@H](CO)C(=O)N[C@@H](CO)C(=O)N[C@H](C(=O)N[C@@H](CC(N)=O)C(=O)N[C@H](C(=O)NCC(=O)N[C@@H](CO)C(=O)N[C@@H](CC(N)=O)C(=O)N[C@H](C(=O)N[C@@H](Cc1ccc(O)cc1)C(N)=O)[C@@H](C)O)C(C)C)[C@@H](C)O
notes: Synthetic acylated analogue of human amylin; also called compound 43

The target of the first assay is T1, human calcitonin receptor. Put plainly: cell-based or functional assay.
Take B1: the “hCTR funct. EC50” value is 4.75 nM.
Consider B2, for which the “hCTR funct. EC50” value was 0.899 nM.
In the case of B3, the “hCTR funct. EC50” value was 1.32 nM.
The same measure, in the same setting: to B4 belongs 0.92 nM.

In another assay the target is T2, human amylin receptor (amylin 3(a) …). Put plainly: cell-based or functional assay.
Take B1: the “Ratio hCT/hAmylin funct.” value amounted to 24 ratio and the “hAmylin-R funct. EC50” value was 0.198 nM.
In the case of B2, the “Ratio hCT/hAmylin funct.” value amounted to 10.2 ratio and the “hAmylin-R funct. EC50” value came out at 0.088 nM.
With B3, the “Ratio hCT/hAmylin funct.” value was 6 ratio and the “hAmylin-R funct. EC50” value turned out to be 0.222 nM.
For B4 the same measures were 6.5 ratio and 0.141 nM.
